These results are taken from patent EP0730609B1.

For the experiment, the target named is recombinant human IL4 (E. coli, non-glycosylated) (human) (UniProt P05112). The experiment can be described thus: cell-based or functional assay.
recombinant human IL4 (E. coli, non-glycosylated) (human), sequence (P05112 25-153 limits assumed): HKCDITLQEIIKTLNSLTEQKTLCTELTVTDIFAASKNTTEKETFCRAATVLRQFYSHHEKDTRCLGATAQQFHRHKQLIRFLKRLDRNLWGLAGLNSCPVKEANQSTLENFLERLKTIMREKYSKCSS

B1: humanized 3B9 (IgG4) (antibody, from another filing, V domains shown)
VH: QVTLRESGPALVKPTQTLTLTCTFSGFSLSTSGMGVSWIRQPPGKGLEWLAHIYWDDDKRYNPSLKSRLTISKDTSRNQVVLTMTNMDPVDTATYYCARRETVFYWYFDVWGRGTPVTVSS
VL: IVMTQSPDSLAVSLGERATINCKASQSVDYDGDSYMNWYQQKPGQPPKLLIYAASNLESGVPDRFSGSGSGTDFTLTISSLQAEDVAVYYCQQSNEDPPRFGGGTKVEIKR
With B1, the B cell (inhibition of IL4-stimulated B lymphocyte proliferation), IC50 worked out at 0.079 nM; the IgE synthesis (inhibition of IL4-driven IgE secretion), IC50 is 0.406 nM; the T cell (inhibition of IL4-stimulated T lymphocyte proliferation), IC50 was 0.04 nM.
